Experimental findings from article PMC6463862, “Adaptive and degenerative evolution of the S-Phase Kinase-Associated Protein 1-Like family in Arabidopsis thaliana” (PeerJ, 2019) are described below.

One test addresses T1, JMJ22 (Arabidopsis (cDNA clone from the …, UniProt Q67XX3 1-502)).
T1 construct: F-box protein JMJ22; CDS PCR amplified from an ABRC cDNA clone and ligated in frame to the 3' end of the GAL4-BD CDS in pGBK-T7 (bait); source: yeast two-hybrid fusion
T1 sequence (looked up): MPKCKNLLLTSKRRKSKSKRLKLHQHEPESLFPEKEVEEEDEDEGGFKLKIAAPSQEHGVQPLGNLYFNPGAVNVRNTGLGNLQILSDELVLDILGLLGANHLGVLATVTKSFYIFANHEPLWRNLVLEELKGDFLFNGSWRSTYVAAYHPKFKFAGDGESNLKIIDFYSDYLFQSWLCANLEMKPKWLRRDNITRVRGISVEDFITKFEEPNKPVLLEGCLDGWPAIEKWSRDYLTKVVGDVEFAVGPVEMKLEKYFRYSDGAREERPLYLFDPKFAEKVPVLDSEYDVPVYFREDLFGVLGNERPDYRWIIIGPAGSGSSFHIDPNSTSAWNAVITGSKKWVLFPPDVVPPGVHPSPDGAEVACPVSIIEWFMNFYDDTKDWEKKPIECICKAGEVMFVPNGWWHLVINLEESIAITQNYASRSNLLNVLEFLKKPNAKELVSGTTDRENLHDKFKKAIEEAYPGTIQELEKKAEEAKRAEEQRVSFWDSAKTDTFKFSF
The test is described as follows: two-hybrid; F-box proteins as GAL4-BD baits (pGBK-T7, AH109), ASK1/2 as GAL4-AD preys (pGAD-T7, Y187), mated; growth on SD-Leu-Trp-Ade-His + X-alpha-gal at 30 °C normalised to growth on SD-Leu-Trp, and beta-galactosidase activity assay (two independent assays); results told together. The following applies: partners not purified.

Test [1] addresses DIF (Arabidopsis (cDNA clone from the Arabidopsis Biological Resource Center)). The description is as above.

A value given as a limit tells only on which side of the number the result lay.

B1: Arabidopsis Skp1-Like 1 (natural protein, A. thaliana, UniProt Q39255 1-160, looked up)
chain: MSAKKIVLKSSDGESFEVEEAVALESQTIAHMVEDDCVDNGVPLPNVTSKILAKVIEYCKRHVEAAASKAEAVEGAATSDDDLKAWDADFMKIDQATLFELILAANYLNIKNLLDLTCQTVADMIKGKTPEEIRTTFNIKNDFTPEEEEEVRRENQWAFE
notes: ASK1 (A. thaliana Skp1-Like 1); CDS PCR amplified from an ABRC cDNA clone and ligated in frame to the 3' end of the GAL4-AD CDS in pGAD-T7 (prey); also called ASK1; source: yeast two-hybrid fusion
In the case of B1, the “fold interaction strength against ASK2” value (with JMJ22; in test [1]) was more than 2 fold in each case.
